From PMC10786891, “Massively parallel profiling of RNA-targeting CRISPR-Cas13d”
Numbering of substitutions follows the chain as printed. Names may count otherwise.

T1: EsCas13d, nuclease-dead (Eubacterium siraeum, UniProt B0MS50, R295A;H300A;R849A;H854A)
T1 sequence: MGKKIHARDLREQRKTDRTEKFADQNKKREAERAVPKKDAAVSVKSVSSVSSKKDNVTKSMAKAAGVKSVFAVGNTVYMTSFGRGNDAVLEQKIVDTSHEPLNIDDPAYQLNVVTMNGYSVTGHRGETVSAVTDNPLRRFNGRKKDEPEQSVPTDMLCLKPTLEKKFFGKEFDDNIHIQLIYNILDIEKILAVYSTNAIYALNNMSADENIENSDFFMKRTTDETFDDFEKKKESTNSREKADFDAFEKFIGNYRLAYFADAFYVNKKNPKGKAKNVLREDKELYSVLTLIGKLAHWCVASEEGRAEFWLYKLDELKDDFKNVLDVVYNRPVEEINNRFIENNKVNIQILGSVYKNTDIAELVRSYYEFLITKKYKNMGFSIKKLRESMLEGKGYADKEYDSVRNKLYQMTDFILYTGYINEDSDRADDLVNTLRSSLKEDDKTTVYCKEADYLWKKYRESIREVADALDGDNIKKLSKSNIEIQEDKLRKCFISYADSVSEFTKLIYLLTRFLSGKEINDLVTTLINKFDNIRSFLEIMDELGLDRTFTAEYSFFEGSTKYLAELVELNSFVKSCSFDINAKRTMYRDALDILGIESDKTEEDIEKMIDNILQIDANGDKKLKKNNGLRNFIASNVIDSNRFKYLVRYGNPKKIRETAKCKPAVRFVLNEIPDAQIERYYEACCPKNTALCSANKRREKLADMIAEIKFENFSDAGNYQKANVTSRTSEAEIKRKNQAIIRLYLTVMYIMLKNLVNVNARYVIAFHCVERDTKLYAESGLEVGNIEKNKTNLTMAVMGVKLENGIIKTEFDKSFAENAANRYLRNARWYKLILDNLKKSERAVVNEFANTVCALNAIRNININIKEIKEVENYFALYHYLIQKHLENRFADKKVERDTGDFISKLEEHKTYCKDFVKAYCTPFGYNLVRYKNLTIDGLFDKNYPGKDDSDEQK

B1: target 1 U3G,G17A (mixed)
RNA 1: CACCCGUGCAAAAAUGCAGGGGUCUAAAACUGAGCGGAUAACCUCUCUAUGG
RNA 2: GGGAAUGGAUCCACAUCUACGAAUUCGUACCAUAAAGAGGUUAUCCGCGCACCGAGAUCGGAAGAGCACACGU
B2: target 1 C6A,A18G (mixed)
RNA 1: B1 RNA 1
RNA 2: B1 RNA 2 with A34G, A35G, C46A, G49U
B3: target 1 insU 3' of 21,insA 3' of 8 (mixed)
RNA 1: B1 RNA 1
RNA 2: GGGAAUGGAUCCACAUCUACGAAUUCGUACCUAUAGAGAGGUUAUACCGCUCACCGAGAUCGGAAGAGCACACGU
B4: target 1 A1U,C4G (mixed)
RNA 1: B1 RNA 1
RNA 2: B1 RNA 2 with A35G, C48G, G49U, A51U
B5: target 1 A1G,C4G (mixed)
RNA 1: B1 RNA 1
RNA 2: B1 RNA 2 with A35G, C48G, G49U, A51G
B6: target 1 G17A,U19G (mixed)
RNA 1: B1 RNA 1
RNA 2: B1 RNA 2 with U33G, G49U
B7: target 1 insC 3' of 14,insG 3' of 1 (mixed)
RNA 1: B1 RNA 1
RNA 2: GGGAAUGGAUCCACAUCUACGAAUUCGUACCAUAGAGACGGUUAUCCGCUCAGCCGAGAUCGGAAGAGCACACGU
B8: target 1 C2A,U3G (mixed)
RNA 1: B1 RNA 1
RNA 2: B1 RNA 2 with A35G, C50A
B9: target 1 U8C,U19A (mixed)
RNA 1: B1 RNA 1
RNA 2: B1 RNA 2 with U33A, A35G, U44C, G49U
B10: target 1 C4G (mixed)
RNA 1: B1 RNA 1
RNA 2: B1 RNA 2 with A35G, C48G, G49U
B11: target 1 del1,del7 (mixed)
RNA 1: B1 RNA 1
RNA 2: GGGAAUGGAUCCACAUCUACGAAUUCGUACCAUAGAGAGGUUAUCGCUCCCGAGAUCGGAAGAGCACACGU
B12: target 1 C2U,U8G (mixed)
RNA 1: B1 RNA 1
RNA 2: B1 RNA 2 with A35G, U44G, G49U, C50U
B13: target 1 A1C,C4G (mixed)
RNA 1: B1 RNA 1
RNA 2: B1 RNA 2 with A35G, C48G, G49U, A51C
B14: target 1 A1C,C6G (mixed)
RNA 1: B1 RNA 1
RNA 2: B1 RNA 2 with A35G, C46G, G49U, A51C
B15: target 1 complement block 5-9 (mixed)
RNA 1: B1 RNA 1
RNA 2: B1 RNA 2 with A35G, A43U, U44A, C45G, C46G, G47C, G49U
B16: target 1 G5U,U11A (mixed)
RNA 1: B1 RNA 1
RNA 2: B1 RNA 2 with A35G, U41A, G47U, G49U
B17: target 1 del2,del7 (mixed)
RNA 1: B1 RNA 1
RNA 2: B11 RNA 2 with C49A
B18: target 1 del3 (mixed)
RNA 1: B1 RNA 1
RNA 2: GGGAAUGGAUCCACAUCUACGAAUUCGUACCAUAGAGAGGUUAUCCGCCACCGAGAUCGGAAGAGCACACGU
B19: target 1 del15,del22 (mixed)
RNA 1: B1 RNA 1
RNA 2: GGGAAUGGAUCCACAUCUACGAAUUCGUACAUAGAAGGUUAUCCGCUCACCGAGAUCGGAAGAGCACACGU
B20: target 1 A9C,U10C (mixed)
RNA 1: B1 RNA 1
RNA 2: B1 RNA 2 with A35G, U42C, A43C, G49U
B21: target 1 insC 3' of 15,insC 3' of 10 (mixed)
RNA 1: B1 RNA 1
RNA 2: GGGAAUGGAUCCACAUCUACGAAUUCGUACCAUAGAGCAGGUUCAUCCGCUCACCGAGAUCGGAAGAGCACACGU
B22: target 1 U11G,C21U (mixed)
RNA 1: B1 RNA 1
RNA 2: B1 RNA 2 with C31U, A35G, U41G, G49U
B23: target 1 insC 3' of 8,insU 3' of 4 (mixed)
RNA 1: B1 RNA 1
RNA 2: B7 RNA 2 with C39G, G41U, U43A, A44U, U45C, C51U, A52C, G53A
B24: target 1 insG 3' of 22,insA 3' of 11 (mixed)
RNA 1: B1 RNA 1
RNA 2: B3 RNA 2 with C31G, U32C, U43A, A44U, U45A, A46U
B25: target 1 A16C,G17C (mixed)
RNA 1: B1 RNA 1
RNA 2: B1 RNA 2 with A35C, A36C, G49U
B26: target 1 U3G,U19G (mixed)
RNA 1: B1 RNA 1
RNA 2: B1 RNA 2 with U33G, A35G
B27: target 1 insC 3' of 14,insC 3' of 1 (mixed)
RNA 1: B1 RNA 1
RNA 2: B7 RNA 2 with G53C
B28: target 1 G5C,A14C (mixed)
RNA 1: B1 RNA 1
RNA 2: B1 RNA 2 with A35G, A38C, G47C, G49U
B29: target 1 insG 3' of 8,insA 3' of 8 (mixed)
RNA 1: B1 RNA 1
RNA 2: B21 RNA 2 with C38A, A39G, G41U, U43A, C44U, A45G, U46A
B30: target 1 U3G,C4A (mixed)
RNA 1: B1 RNA 1
RNA 2: B1 RNA 2 with A35G, C48A
B31: target 1 insU 3' of 13,insC 3' of 11 (mixed)
RNA 1: B1 RNA 1
RNA 2: B21 RNA 2 with C38A, A39G, G40U, U43C, C44U
B32: target 1 insC 3' of 14,insU 3' of 1 (mixed)
RNA 1: B1 RNA 1
RNA 2: B7 RNA 2 with G53U
B33: target 1 U8G,U10G (mixed)
RNA 1: B1 RNA 1
RNA 2: B1 RNA 2 with A35G, U42G, U44G, G49U
B34: target 1 insU 3' of 12,insA 3' of 3 (mixed)
RNA 1: B1 RNA 1
RNA 2: B7 RNA 2 with C39G, G41U, C51A, A52C, G53A

Biological target: T1, EsCas13d, nuclease-dead
Experiment: crRNA (strand 1, pre-loaded); Mg2+; 40 mM Tris-HCl pH 7.5, 150 mM NaCl, 6 mM MgCl2, 1 mM DTT, 0.1% Tween-20, 0.2 mg/ml BSA; 25 C; 10 min per concentration, then washed
Conditions: tags: His6-TwinStrep-SUMO cleaved; N-terminal SNAP kept (SNAP-Surface 488); label: 3' end held by stalled T7 RNA polymerase

Binder	Kd
B1	37 ± 4 nM
B2	98 ± 20 nM
B3	48 ± 4 nM
B4	6.11 ± 0.25 nM
B5	5.2 ± 0.34 nM
B6	51 ± 6 nM
B7	50 ± 12 nM
B8	8.6 ± 0.7 nM
B9	59 ± 9 nM
B10	5.3 ± 0.8 nM
B11	9.7 ± 0.6 nM
B12	17.1 ± 0.9 nM
B13	10.7 ± 1 nM
B14	12.1 ± 1.1 nM
B15	17.2 ± 0.7 nM
B16	~60 nM
B17	6.62 ± 0.24 nM

Binder	Kd
B18	28 ± 5 nM
B19	54 ± 23 nM
B20	15.1 ± 1.5 nM
B21	17.3 ± 1.1 nM
B22	9.4 ± 0.5 nM
B23	12.2 ± 1 nM
B24	33 ± 4 nM
B25	~100 nM
B26	35.9 ± 2.7 nM
B27	50 ± 11 nM
B28	14.5 ± 1.5 nM
B29	27.2 ± 1.4 nM
B30	4.19 ± 0.3 nM
B31	29 ± 7 nM
B32	~50 nM
B33	20 ± 1.1 nM
B34	5.8 ± 0.4 nM
